# Measurements reported in patent publication US20250197483A1 (US Dept. of Health and Human Services, published 2025).
# Molecular target: T1, FcRn/β2m heterodimer (UniProt P55899 24-297; P61769 21-119)
# T1 construct: also called His-tagged FcRn/β2m; neonatal Fc receptor
# Test: BLI (Octet), pH 7.4: Ni-NTA biosensors coated with His-tagged FcRn/β2m dipped into wells with the antibody as analyte
# Description: Fc-FcRn binding kinetics by bio-layer interferometry. We used Octet HTX system (ForteBio) to measure the Fc-FcRn binding kinetics with FcRn/2m as ligand. […] For reference, we repeated the entire steps mentioned above but with blank Ni-NTA biosensors. Binding kinetic sensograms were globally fitted with 1:1 model and double referencing to extract kinetic parameters.
# T1 sequence (P55899 24-297 limits assumed, chain 1 of 2): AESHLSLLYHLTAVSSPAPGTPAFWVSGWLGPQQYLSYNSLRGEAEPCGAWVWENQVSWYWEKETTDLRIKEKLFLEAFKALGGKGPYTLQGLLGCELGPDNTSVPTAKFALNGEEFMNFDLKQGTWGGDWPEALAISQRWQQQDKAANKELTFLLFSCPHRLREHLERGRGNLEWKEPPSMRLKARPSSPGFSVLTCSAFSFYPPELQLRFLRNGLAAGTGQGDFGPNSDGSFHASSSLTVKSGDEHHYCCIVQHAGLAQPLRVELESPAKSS
# T1 sequence (P61769 21-119 limits assumed, chain 2 of 2): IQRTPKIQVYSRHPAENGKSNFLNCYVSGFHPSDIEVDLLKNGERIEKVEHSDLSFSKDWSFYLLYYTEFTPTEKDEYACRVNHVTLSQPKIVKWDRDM
row,Binder,Kd [µM]
1,"VRC07-523LS.v1 (antibody, human IgG1, kappa) heavy: not shown light: LTQSPGTLSLSPGETAIISCRTSQYGSLAWYQQRPGQAPRLVIYSGSTRAAGIPDRFSGSRWGPDYNLTISNLESGDFGVYYCQQYEFFGQGTKVQVDIKRTVAAPSVFIFPPSDEQLKSGTASVVCLLNNFYPREAKVQWKVDNALQSGNSQESVTEQDSKDSTYSLSSTLTLSKADYEKHKVYACEVTHQGLSSPVTKSFNRGEC",0.93
2,"VRC07-523LS.v34 (antibody, human IgG1, kappa) heavy: not shown light: LTQSPGTLSLSPGETAIISCETSQYGSLAWYQQRPGQAPRLVIYSGSTRAAGIPDRFSGSRWGPDYNLTISNLESGDFGVYYCQQYEFFGQGTKVQVDIKRTVAAPSVFIFPPSDEQLKSGTASVVCLLNNFYPREAKVQWKVDNALQSGNSQESVTEQDSKDSTYSLSSTLTLSKADYEKHKVYACEVTHQGLSSPVTKSFNRGEC",6
3,"VRC07-523LS.v11 (antibody, human IgG1, kappa) heavy: not shown light: LTQSPGTLSLSPGETAIISCDTSQYGSLAWYQQRPGQAPRLVIYSGSTRAAGIPDRFSGSRWGPDYNLTISNLESGDFGVYYCQQYEFFGQGTKVQVDIKRTVAAPSVFIFPPSDEQLKSGTASVVCLLNNFYPREAKVQWKVDNALQSGNSQESVTEQDSKDSTYSLSSTLTLSKADYEKHKVYACEVTHQGLSSPVTKSFNRGEC",3.96
